From the RNAGym collection of RNA variant scans (doi:10.1021/acssynbio.7b00057)

B1: Pistol ribozyme (parent)
chain: GGGUCGUUGUUCCAUAAUCGCGUGGAUAUGGCACGCAAGUUUCUACCGGGCACCGUAAAUGUCCGACUGGAGCCGUUCGGGCGGCUAUAAACAGACCUCAGGCCCGAAGCGUGGCGGCACCUGCCGCCGGUGGUAAAAAAGAUCGGAAGAGCACACGUCU

Variants of: B1
Assay: aptazyme ON/OFF ratio, guanine; higher = stronger switching; co-transcriptional cleavage with and without guanine

Variant	aptazyme ON/OFF ratio
GGGUCGUGCAAUGAUAAUCGCGUGGAUAUGGCACGCAAGUUUCUACCGGGCACCGUAAAUGUCCGACUGGAGCCGUUCGGGCGGCUAUAAACAGACCUCAGGCCCGAAGCGUGGCGGCACCUGCCGCCGGUGGUAAAAAAGAUCGGAAGAGCACACGUCU [U8G G9C U10A U11A C12U C13G]	1.1
GGGUCGUGCAAUAAUAAUCGCGUGGAUAUGGCACGCAAGUUUCUACCGGGCACCGUAAAUGUCCGACUGGAGCCGUUCGGGCGGCUAUAAACAGACCUCAGGCCCGAAGCGUGGCGGCACCUGCCGCCGGUGGUAAAAAAGAUCGGAAGAGCACACGUCU [U8G G9C U10A U11A C12U C13A]	1.14
GGGUCGUGCAAUUAUAAUCGCGUGGAUAUGGCACGCAAGUUUCUACCGGGCACCGUAAAUGUCCGACUGGAGCCGUUCGGGCGGCUAUAAACAGACCUCAGGCCCGAAGCGUGGCGGCACCUGCCGCCGGUGGUAAAAAAGAUCGGAAGAGCACACGUCU [U8G G9C U10A U11A C12U C13U]	1.19
GGGUCGUGCUUUUAUAAUCGCGUGGAUAUGGCACGCAAGUUUCUACCGGGCACCGUAAAUGUCCGACUGGAGCCGUUCGGGCGGCUAUAAACAGACCUCAGGCCCGAAGCGUGGCGGCACCUGCCGCCGGUGGUAAAAAAGAUCGGAAGAGCACACGUCU [U8G G9C C12U C13U]	1.06
GGGUCGUGCUUUGAUAAUCGCGUGGAUAUGGCACGCAAGUUUCUACCGGGCACCGUAAAUGUCCGACUGGAGCCGUUCGGGCGGCUAUAAACAGACCUCAGGCCCGAAGCGUGGCGGCACCUGCCGCCGGUGGUAAAAAAGAUCGGAAGAGCACACGUCU [U8G G9C C12U C13G]	1.04
GGGUCGUGCUUUAAUAAUCGCGUGGAUAUGGCACGCAAGUUUCUACCGGGCACCGUAAAUGUCCGACUGGAGCCGUUCGGGCGGCUAUAAACAGACCUCAGGCCCGAAGCGUGGCGGCACCUGCCGCCGGUGGUAAAAAAGAUCGGAAGAGCACACGUCU [U8G G9C C12U C13A]	1.05
GGGUCGUGCAAACAUAAUCGCGUGGAUAUGGCACGCAAGUUUCUACCGGGCACCGUAAAUGUCCGACUGGAGCCGUUCGGGCGGCUAUAAACAGACCUCAGGCCCGAAGCGUGGCGGCACCUGCCGCCGGUGGUAAAAAAGAUCGGAAGAGCACACGUCU [U8G G9C U10A U11A C12A]	1.18
GGGUCGUGCAAUCAUAAUCGCGUGGAUAUGGCACGCAAGUUUCUACCGGGCACCGUAAAUGUCCGACUGGAGCCGUUCGGGCGGCUAUAAACAGACCUCAGGCCCGAAGCGUGGCGGCACCUGCCGCCGGUGGUAAAAAAGAUCGGAAGAGCACACGUCU [U8G G9C U10A U11A C12U]	1.18
GGGUCGUGCAAGCAUAAUCGCGUGGAUAUGGCACGCAAGUUUCUACCGGGCACCGUAAAUGUCCGACUGGAGCCGUUCGGGCGGCUAUAAACAGACCUCAGGCCCGAAGCGUGGCGGCACCUGCCGCCGGUGGUAAAAAAGAUCGGAAGAGCACACGUCU [U8G G9C U10A U11A C12G]	1.16
GGGUCGUGCAACCAUAAUCGCGUGGAUAUGGCACGCAAGUUUCUACCGGGCACCGUAAAUGUCCGACUGGAGCCGUUCGGGCGGCUAUAAACAGACCUCAGGCCCGAAGCGUGGCGGCACCUGCCGCCGGUGGUAAAAAAGAUCGGAAGAGCACACGUCU [U8G G9C U10A U11A]	1.18
GGGUCGUGCAUGGAUAAUCGCGUGGAUAUGGCACGCAAGUUUCUACCGGGCACCGUAAAUGUCCGACUGGAGCCGUUCGGGCGGCUAUAAACAGACCUCAGGCCCGAAGCGUGGCGGCACCUGCCGCCGGUGGUAAAAAAGAUCGGAAGAGCACACGUCU [U8G G9C U10A C12G C13G]	1.16
GGGUCGUGCAUGUAUAAUCGCGUGGAUAUGGCACGCAAGUUUCUACCGGGCACCGUAAAUGUCCGACUGGAGCCGUUCGGGCGGCUAUAAACAGACCUCAGGCCCGAAGCGUGGCGGCACCUGCCGCCGGUGGUAAAAAAGAUCGGAAGAGCACACGUCU [U8G G9C U10A C12G C13U]	1.17
GGGUCGUGCAUGAAUAAUCGCGUGGAUAUGGCACGCAAGUUUCUACCGGGCACCGUAAAUGUCCGACUGGAGCCGUUCGGGCGGCUAUAAACAGACCUCAGGCCCGAAGCGUGGCGGCACCUGCCGCCGGUGGUAAAAAAGAUCGGAAGAGCACACGUCU [U8G G9C U10A C12G C13A]	1.16
GGGUCGUGCAUGCAUAAUCGCGUGGAUAUGGCACGCAAGUUUCUACCGGGCACCGUAAAUGUCCGACUGGAGCCGUUCGGGCGGCUAUAAACAGACCUCAGGCCCGAAGCGUGGCGGCACCUGCCGCCGGUGGUAAAAAAGAUCGGAAGAGCACACGUCU [U8G G9C U10A C12G]	1.1
GGGUCGUGCAUACAUAAUCGCGUGGAUAUGGCACGCAAGUUUCUACCGGGCACCGUAAAUGUCCGACUGGAGCCGUUCGGGCGGCUAUAAACAGACCUCAGGCCCGAAGCGUGGCGGCACCUGCCGCCGGUGGUAAAAAAGAUCGGAAGAGCACACGUCU [U8G G9C U10A C12A]	1.23
GGGUCGUGCAUUCAUAAUCGCGUGGAUAUGGCACGCAAGUUUCUACCGGGCACCGUAAAUGUCCGACUGGAGCCGUUCGGGCGGCUAUAAACAGACCUCAGGCCCGAAGCGUGGCGGCACCUGCCGCCGGUGGUAAAAAAGAUCGGAAGAGCACACGUCU [U8G G9C U10A C12U]	1.08
GGGUCGUGCAAAGAUAAUCGCGUGGAUAUGGCACGCAAGUUUCUACCGGGCACCGUAAAUGUCCGACUGGAGCCGUUCGGGCGGCUAUAAACAGACCUCAGGCCCGAAGCGUGGCGGCACCUGCCGCCGGUGGUAAAAAAGAUCGGAAGAGCACACGUCU [U8G G9C U10A U11A C12A C13G]	1.09
GGGUCGUGCAAAUAUAAUCGCGUGGAUAUGGCACGCAAGUUUCUACCGGGCACCGUAAAUGUCCGACUGGAGCCGUUCGGGCGGCUAUAAACAGACCUCAGGCCCGAAGCGUGGCGGCACCUGCCGCCGGUGGUAAAAAAGAUCGGAAGAGCACACGUCU [U8G G9C U10A U11A C12A C13U]	1.18

Variant	aptazyme ON/OFF ratio
GGGUCGUGCAAAAAUAAUCGCGUGGAUAUGGCACGCAAGUUUCUACCGGGCACCGUAAAUGUCCGACUGGAGCCGUUCGGGCGGCUAUAAACAGACCUCAGGCCCGAAGCGUGGCGGCACCUGCCGCCGGUGGUAAAAAAGAUCGGAAGAGCACACGUCU [U8G G9C U10A U11A C12A C13A]	1.12
GGGUCGUGCUUCAAUAAUCGCGUGGAUAUGGCACGCAAGUUUCUACCGGGCACCGUAAAUGUCCGACUGGAGCCGUUCGGGCGGCUAUAAACAGACCUCAGGCCCGAAGCGUGGCGGCACCUGCCGCCGGUGGUAAAAAAGAUCGGAAGAGCACACGUCU [U8G G9C C13A]	1.04
GGGUCGUGCUUCUAUAAUCGCGUGGAUAUGGCACGCAAGUUUCUACCGGGCACCGUAAAUGUCCGACUGGAGCCGUUCGGGCGGCUAUAAACAGACCUCAGGCCCGAAGCGUGGCGGCACCUGCCGCCGGUGGUAAAAAAGAUCGGAAGAGCACACGUCU [U8G G9C C13U]	1.04
GGGUCGUGCUUCGAUAAUCGCGUGGAUAUGGCACGCAAGUUUCUACCGGGCACCGUAAAUGUCCGACUGGAGCCGUUCGGGCGGCUAUAAACAGACCUCAGGCCCGAAGCGUGGCGGCACCUGCCGCCGGUGGUAAAAAAGAUCGGAAGAGCACACGUCU [U8G G9C C13G]	1.03
GGGUCGUGCAUUAAUAAUCGCGUGGAUAUGGCACGCAAGUUUCUACCGGGCACCGUAAAUGUCCGACUGGAGCCGUUCGGGCGGCUAUAAACAGACCUCAGGCCCGAAGCGUGGCGGCACCUGCCGCCGGUGGUAAAAAAGAUCGGAAGAGCACACGUCU [U8G G9C U10A C12U C13A]	1.15
GGGUCGUGCAUUGAUAAUCGCGUGGAUAUGGCACGCAAGUUUCUACCGGGCACCGUAAAUGUCCGACUGGAGCCGUUCGGGCGGCUAUAAACAGACCUCAGGCCCGAAGCGUGGCGGCACCUGCCGCCGGUGGUAAAAAAGAUCGGAAGAGCACACGUCU [U8G G9C U10A C12U C13G]	1.1
GGGUCGUGCAUUUAUAAUCGCGUGGAUAUGGCACGCAAGUUUCUACCGGGCACCGUAAAUGUCCGACUGGAGCCGUUCGGGCGGCUAUAAACAGACCUCAGGCCCGAAGCGUGGCGGCACCUGCCGCCGGUGGUAAAAAAGAUCGGAAGAGCACACGUCU [U8G G9C U10A C12U C13U]	1.07
GGGUCGUGCAUCCAUAAUCGCGUGGAUAUGGCACGCAAGUUUCUACCGGGCACCGUAAAUGUCCGACUGGAGCCGUUCGGGCGGCUAUAAACAGACCUCAGGCCCGAAGCGUGGCGGCACCUGCCGCCGGUGGUAAAAAAGAUCGGAAGAGCACACGUCU [U8G G9C U10A]	1.13
GGGUCGUGCAUCGAUAAUCGCGUGGAUAUGGCACGCAAGUUUCUACCGGGCACCGUAAAUGUCCGACUGGAGCCGUUCGGGCGGCUAUAAACAGACCUCAGGCCCGAAGCGUGGCGGCACCUGCCGCCGGUGGUAAAAAAGAUCGGAAGAGCACACGUCU [U8G G9C U10A C13G]	1.06
GGGUCGUGCAUCUAUAAUCGCGUGGAUAUGGCACGCAAGUUUCUACCGGGCACCGUAAAUGUCCGACUGGAGCCGUUCGGGCGGCUAUAAACAGACCUCAGGCCCGAAGCGUGGCGGCACCUGCCGCCGGUGGUAAAAAAGAUCGGAAGAGCACACGUCU [U8G G9C U10A C13U]	1.09
GGGUCGUGCAUCAAUAAUCGCGUGGAUAUGGCACGCAAGUUUCUACCGGGCACCGUAAAUGUCCGACUGGAGCCGUUCGGGCGGCUAUAAACAGACCUCAGGCCCGAAGCGUGGCGGCACCUGCCGCCGGUGGUAAAAAAGAUCGGAAGAGCACACGUCU [U8G G9C U10A C13A]	1.07
GGGUCGUGCAAGGAUAAUCGCGUGGAUAUGGCACGCAAGUUUCUACCGGGCACCGUAAAUGUCCGACUGGAGCCGUUCGGGCGGCUAUAAACAGACCUCAGGCCCGAAGCGUGGCGGCACCUGCCGCCGGUGGUAAAAAAGAUCGGAAGAGCACACGUCU [U8G G9C U10A U11A C12G C13G]	1.18
GGGUCGUGCAAGUAUAAUCGCGUGGAUAUGGCACGCAAGUUUCUACCGGGCACCGUAAAUGUCCGACUGGAGCCGUUCGGGCGGCUAUAAACAGACCUCAGGCCCGAAGCGUGGCGGCACCUGCCGCCGGUGGUAAAAAAGAUCGGAAGAGCACACGUCU [U8G G9C U10A U11A C12G C13U]	1.18
GGGUCGUGCAAGAAUAAUCGCGUGGAUAUGGCACGCAAGUUUCUACCGGGCACCGUAAAUGUCCGACUGGAGCCGUUCGGGCGGCUAUAAACAGACCUCAGGCCCGAAGCGUGGCGGCACCUGCCGCCGGUGGUAAAAAAGAUCGGAAGAGCACACGUCU [U8G G9C U10A U11A C12G C13A]	1.11
GGGUCGUGCAUAGAUAAUCGCGUGGAUAUGGCACGCAAGUUUCUACCGGGCACCGUAAAUGUCCGACUGGAGCCGUUCGGGCGGCUAUAAACAGACCUCAGGCCCGAAGCGUGGCGGCACCUGCCGCCGGUGGUAAAAAAGAUCGGAAGAGCACACGUCU [U8G G9C U10A C12A C13G]	1.12
GGGUCGUGCAUAUAUAAUCGCGUGGAUAUGGCACGCAAGUUUCUACCGGGCACCGUAAAUGUCCGACUGGAGCCGUUCGGGCGGCUAUAAACAGACCUCAGGCCCGAAGCGUGGCGGCACCUGCCGCCGGUGGUAAAAAAGAUCGGAAGAGCACACGUCU [U8G G9C U10A C12A C13U]	1.17
GGGUCGUGCAUAAAUAAUCGCGUGGAUAUGGCACGCAAGUUUCUACCGGGCACCGUAAAUGUCCGACUGGAGCCGUUCGGGCGGCUAUAAACAGACCUCAGGCCCGAAGCGUGGCGGCACCUGCCGCCGGUGGUAAAAAAGAUCGGAAGAGCACACGUCU [U8G G9C U10A C12A C13A]	1.13
GGGUCGUGCAACAAUAAUCGCGUGGAUAUGGCACGCAAGUUUCUACCGGGCACCGUAAAUGUCCGACUGGAGCCGUUCGGGCGGCUAUAAACAGACCUCAGGCCCGAAGCGUGGCGGCACCUGCCGCCGGUGGUAAAAAAGAUCGGAAGAGCACACGUCU [U8G G9C U10A U11A C13A]	1.11
